According to patent publication US20250326818A1 (UNIVERSIT T BASEL, published 2025):

Biological target: T1, CD123 ECD E51A (human, UniProt P26951 19-305)
T1 construct: Recombinant ECD
T1 sequence: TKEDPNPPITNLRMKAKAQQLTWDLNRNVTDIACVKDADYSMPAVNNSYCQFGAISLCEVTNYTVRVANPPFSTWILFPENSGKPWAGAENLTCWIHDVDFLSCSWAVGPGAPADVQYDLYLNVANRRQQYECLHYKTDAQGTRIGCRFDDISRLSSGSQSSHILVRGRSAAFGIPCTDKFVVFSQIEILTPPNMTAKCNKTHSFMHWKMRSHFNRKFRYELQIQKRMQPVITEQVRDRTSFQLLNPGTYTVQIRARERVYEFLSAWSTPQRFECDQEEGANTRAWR
Test: BLI (Octet), biotinylated CD123 ECD captured on streptavidin tips, hIL3 as analyte, level at 250 s normalised to loading
Procedure: Binding of hIL3 (SinoBiological, PN: 11858-H08H) (analyte) to CD123 ECD wt. and variants (ligands) was performed using Streptavidin capture biosensor (SA) (Sartorius, PN: 18-5019). CD123 ECD wt. and variants were biotinylated using Biotinylation kit Type B (Abeam, PN: ab201796) following manufacturer instructions. Biotinylated CD123 ECD wt. and variants (ligands) were captured on SA tips for 1000 s to achieve a nm shift of 1.5 to 2 nm. Analyte hIL3 was titrated at 7 concentrations from 500 to 7.8 nM. Association to analyte was monitored for 300 s and dissociation for 120 s. Buffer only well was used as reference. No regeneration was performed, and a new set of tips was used for each biotinylated captured ligand. Data were analyzed using the Octet Data Analysis software HT 12.0. Due to the fast on/off nature of the interaction data were analyzed using Steady state analysis. Qualitative representation in FIG. 11 binding level were taken at 250 s association for all concentrations.

B1: hIL3 (ligand, human, UniProt P08700 20-152, looked up)
chain: APMTQTTPLKTSWVNCSNMIDEIITHLKQPPLPLLDFNNLNGEDQDILMENNLRRPNLEAFNRAVKSLQNASAIESILKNLLPCLPLATAAPTRHPIHIKDGDWNEFRRKLTFYLKTLENAQAQQTTLSLAIF
notes: also called Interleukin-3
binding result: binds
